Results from patent US20100209400A1, “TAK1-Mediated Regulation of Osteogenesis” (priority 2003, published 2010).

What was measured:
C3H10T½-BMP2 cells = assay: Semi-quantitative RT-PCR of osteo-/chondrogenic marker genes and Alcian Blue staining; type: cell-based, murine; details: co-expression in C3H10T½-BMP2 cells
Method: Proteoglycan-secreting chondrocytes were identified by staining with Alcian Blue at pH 2.5 (Alcian Blue 8GS, Roth, Karlsruhe).
Total cellular RNA was prepared by TriReagent LS according to the manufacturer's protocol (Molecular Research Center Inc., Ohio, Miss.). Five μg of total RNA was reverse transcribed with oligo-dT primers and cDNA aliquots were subjected to PCR. RT-PCR was normalized by the transcriptional levels of HPRT. The primer pairs and PCR conditions used to evaluate osteo-/chondrogenic differentiation, for collagen Ia1, collagen IIa1, osteocalcin, and the PTH/PTHrP-receptor have been described (Hoffmann A et al, J. Cell Sci 115: 769-781, 2002).

[1] = tested on: nucleo-cytoplasmic shuttling of SMAD1 and SMAD3; assay: Immunofluorescence of Flag-tagged SMAD1 and SMAD3 localisation in HEK293T cells; type: cell-based, human; details: Flag-tagged SMADs
Method: HEK293T cells were seeded at 2×10^5 cells/well into poly-D-lysine coated 6-well plates one day prior to transfection. Transient transfections were conducted with Fugene 6. After 30 hours, the cells were fixed with 4% paraformaldehyde in phosphate buffered saline (PBS) for 10 minutes, washed twice with PBS, and permeabilized with methanol followed by 0.5% Triton-X 100 in PBS. After washing with 0.1% Triton-X 100 in PBS (PBT), blocking was performed with 5% FCS in PBT for 1 hour at room temperature. Following another PBT wash, tagged proteins were incubated with the appropriate primary antibodies. Detection was accomplished via goat anti mouse-Alexa 488 (A-11001, Molecular Probes) (5 μg/ml) antibody for murine primary antibodies.
To determine whether TAK1-dependent interference with SMAD activity affected subcellular distribution of SMAD, immunofluorescence was used to localize flag-tagged SMAD1 or SMAD3 expressed in HEK293T cells in the absence or presence of constitutively active receptors (FIG. 7).

[2] = tested on: SMAD1 trans-activation potential; assay: GAL4 DBD-SMAD1 luciferase trans-activation reporter assay; type: cell-based, human
Method: Reporter assays using the GALA DNA binding domain fused to various forms of SMAD proteins were performed as described (Meersseman, G at al, Mech. Dev, 61: 127-140, 1997). Briefly, 420 nanograms (ng) DNA was transfected/well (24 well-plate seeded with 1×10^5 HEK 293T cells) one day prior to transfection. The DNA mix included a plasmid expressing β-galactosidase under the control of the RSV promoter, for normalization purposes and a reporter plasmid encoding firefly luciferase under the control of 5 GAL4 binding sites upstream of a minimal TATA box (pG5 luc, Promega, Mannheim) and combinations of effector plasmids. The DNA content was normalized with empty vector.
Cells were harvested and lysed. β-Galactosidase (β-gal) activity was measured via the luminescent β-galactosidase kit II (Clontech, Palo Alto, Calif.), and luciferase activity via the luciferase assay system (Promega, Mannheim). All results are expressed as luciferase activity normalized with β-gal values (“relative luciferase activities”). Reporter assays with the SMAD1 DNA binding element SBE-9 (GCCG×9) (Kusanagi K et al, Mol Biol Cell 11: 555-565, 2000) cloned into pCAT5 vector (Boshart M et al, Gene 110: 129-130, 1992) were performed similarly except that cells were lysed in CAT lysis buffer. CAT enzyme was measured via CAT ELISA assay and β-gal via chemiluminescent β-gal reporter gene assay (Roche, Mannheim).
To determine whether MH2 domains involved in TAK1 binding mediated inhibition of R-SMAD biological activity, a reporter assay measuring SMAD trans-activation potential was performed. Full-length SMAD1 and deletion mutants thereof were fused in-frame with the GAL4-DNA binding domain, and SMAD trans-activation potential was measured via UAS-driven-luciferase reporter expression (FIGS. 6B & C). The trans-activating potential of SMAD1/GAL4 hybrid molecules was measured with increasing amounts of TAK1 variants. […]

B1: TAK1dn: dominant-negative TAK1 mutant (K63W), kinase inactive (protein)
chain: MSTASAASSSSSSSASEMIEAPSQVLNFEEIDYKEIEVEEVVGRGAFGVVCKAKWRAKDVAIWQIESESERKAFIVELRQLSRVNHPNIVKLYGACLNPVCLVMEYAEGGSLYNVLHGAEPLPYYTAAHAMSWCLQCSQGVAYLHSMQPKALIHRDLKPPNLLLVAGGTVLKICDFGTACDIQTHMTNNKGSAAWMAPEVFEGSNYSEKCDVFSWGIILWEVITRRKPFDEIGGPAFRIMWAVHNGTRPPLIKNLPKPIESLMTRCWSKDPSQRPSMEEIVKIMTHLMRYFPGADEPLQYPCQYSDEGQSNSATSTGSFMDIASTNTSNKSDTNMEQVPATNDTIKRLESKLLKNQAKQQSESGRLSLGASRGSSVESLPPTSEGKRMSADMSEIEARIVATAGNGQPRRRSIQDLTVTGTEPGQVSSRSSSPSVRMITTSGPTSEKPARSHPWTPDDSTDTNGSDNSIPMAYLTLDHQLQPLAPCPNSKESMAVFEQHCKMAQEYMKVQTEIALLLQRKQELVAELDQDEKDQQNTSRLVQEHKKLLDENKSLSTYYQQCKKQLEVIRSQQQKRQGTS
modifications: left off: small tags and cut ends
- expression of osteogenic marker genes (osteocalcin, PTH/PTHrP receptor) (C3H10T½-BMP2 cells): no effect
- subcellular localisation of SMAD1 and SMAD3 [1]: predominantly in the nucleus
- trans-activating potential of GAL4-SMAD1-MH2 and GAL4-SMAD1-L+MH2 constructs ([2]; FIG. 6C): no effect
- trans-activation activity after sharp drop from elevated value ([2]; higher amounts of TAK1dn): roughly 70%
- increase of SMAD trans-activation ([2]; low concentrations of TAK1dn): 35%
